Experimental findings from patent publication US20230295310A1 (ABCELLERA BIOLOGICS, published 2023) are described below.

The target in the experiment is human CD3 (human, UniProt P07766 23-207; P04234 22-171; P09693 23-182). As to the kind of experiment: cell-based or functional assay.
Chain of human CD3 (P07766 23-207, chain 1 of 3): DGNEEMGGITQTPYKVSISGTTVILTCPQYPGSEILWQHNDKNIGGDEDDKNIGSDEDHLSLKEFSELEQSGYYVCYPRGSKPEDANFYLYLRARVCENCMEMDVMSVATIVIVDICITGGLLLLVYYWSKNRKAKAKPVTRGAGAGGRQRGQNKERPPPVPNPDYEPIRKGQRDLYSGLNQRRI
Chain of human CD3 (P04234 22-171, chain 2 of 3): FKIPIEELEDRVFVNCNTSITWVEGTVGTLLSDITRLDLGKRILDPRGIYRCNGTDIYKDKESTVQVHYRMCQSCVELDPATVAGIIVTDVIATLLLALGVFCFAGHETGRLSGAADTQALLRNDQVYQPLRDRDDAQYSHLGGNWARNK
Chain of human CD3 (P09693 23-182, chain 3 of 3): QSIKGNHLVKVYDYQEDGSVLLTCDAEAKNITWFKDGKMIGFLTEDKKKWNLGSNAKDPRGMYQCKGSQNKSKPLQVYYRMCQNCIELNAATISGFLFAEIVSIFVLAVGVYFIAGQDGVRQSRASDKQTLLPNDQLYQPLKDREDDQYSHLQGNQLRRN

B1: mAb 176 (antibody, V domains shown)
VH: EVELVESGGGLVQPGRSLRLSCAASGFKFDDYTMHWVRLPPGKGLEWVSGISWNSGTIDYGDSVKGRFTISRDNAKNSLYLQMNSLRVEDTALYYCAKDTSGYGHYFYYYMDVWGKGTTVTVSS
VL: DIQMTQSPSSLSASIGDRVSITCRTSQIINNYLNWYQQKPGKAPKVLIYSASSLQSGVPSRFSGSGSGTDFTLTINSLQPEDFATYYCQQSYNFPITFGQGTRLELK
For the molecule B1, the “CD4 EC50 (nM); CD69/CD25 on human T cells, plate-coated antibody” value (from here on “CD4 EC50 (nM); CD69/CD25”) was determined as 6.38 nM and the “CD8 EC50 (nM); CD69/CD25 on human T cells, plate-coated antibody” value (from here on “CD8 EC50 (nM); CD69/CD25”) turned out to be 6.37 nM.

B2: mAb 177 (antibody, V domains shown)
VH: EVQLVESGGGLVQPGMSLRLSCAASGFTFDDYTMHWVRQSPGKGLEWVAGISWNSGTIGYGDSMKGRFTISRDNAKNSLDLQMNSLRVEDTALYYCAKDTSGYGHYYYYFMDVWGKGTTVTVSS
VL: DIQMTQSPSSLSASIGDRVSITCRTSQIINNYLNWYQQKPGKAPKLLIYSASSLQSGVPSRFSGSGSGTDFTLTLSSLQPEDFATYFCQQSYNFPITFGQGTRLELK
Take B2: the “CD4 EC50 (nM); CD69/CD25” value worked out at 14.3 nM and the “CD8 EC50 (nM); CD69/CD25” value amounted to 14.2 nM.

B3: mAb 178 (antibody, V domains shown)
VH: EVQLVESGGGLVQPGRSLRLSCAASGFTFDDYTMHWVRQAPGKGLEWVSDISWNSGTIGYADSVKGRFTISRDNAKNSLYLQMNSLRAEDTALYYCVKDSSGYGHYYKYYMDVWGKGTTVTVSS
VL: DIQMTQSPSSLSASVGDRVTITCRASQSISNYLNWYQQKAGKVPKVLIYGSSSLQSGVPSRFSGSGSGTDFTLTISSLQPEDFASYYCQQTYSSPLTFGGGTKVDFK
For the molecule B3, the “CD4 EC50 (nM); CD69/CD25” value was 12.6 nM and the “CD8 EC50 (nM); CD69/CD25” value stood at 12.6 nM.

B4: mAb 180 (antibody, V domains shown)
VH: EVNLVESGGGLVQPGRSLRLSCAASGFTFDDYTMHWVRQVPGKGLEWVSNISWNSGSLGYADSVKGRFTISRDNAKDSLYLQMNSLRVEDTALYYCAKDSSGYGHYNSYYMDVWGKGTTVTVSS
VL: DIQMTQSPSSLSASVGDRVTITCRASQSIRNYLNWYQQKPGKAPKVLIYSASSLQSGVPSRFSGSGSGTDFTLTISSLQPEDFASFYCQQTYSTPITFGQGTRLEIK
With B4, the “CD4 EC50 (nM); CD69/CD25” value is 6.54 nM and the “CD8 EC50 (nM); CD69/CD25” value amounted to 6.57 nM.

B5: mAb 179 (antibody, V domains shown)
VH: EVQLVESGGGLVQPGRSLRLSCAASGFTFDDYTMHWVRQTPGKGLEWVSDISWNSGSIGYADSVKGRFTISRDNAKNTLYLQMNSLRAEDTALYYCVKDSSGYGHYLYYYMDVWGKGTTVTVSS
VL: DIQMTQSPSSLSASVGDRVTITCRASQSIRNYLNWYQQSPGRAPKLLIFSASSLQSGVPSRFSGSGSGTDFTLTISSLQPEDFVTYYCQQRYSTPITFGQGTRLEIK
Regarding B5, the “CD4 EC50 (nM); CD69/CD25” value is 10.4 nM and the “CD8 EC50 (nM); CD69/CD25” value is 9.87 nM.

B6: mAb 66 (antibody, V domains shown)
VH: QVQLVQSGAEVKKPGASVKVSCKASGYTVTGYYMHWVRQAPGQGLEWMGWINPNSGGTNFAQNFQGRVTMTRDTSISTFYMDLSRLRSDDTAVYYCARGGAPVSYWFFDLWGRGTLVTVSS
VL: DIQMTQSPSSLSASVGDRVTITCRASQSISRYLNWYQQKPGKAPKVLIYNTSSLKSGVPSRFSGSGSGTDFTLTISSLQPEDFATLYCQQSHSTPFTFGPGTKVDIK
For B6, the “CD4 EC50 (nM); CD69/CD25” value turned out to be 13 nM and the “CD8 EC50 (nM); CD69/CD25” value is 13.2 nM.

B7: mAb 79 (antibody, V domains shown)
VH: QVQLVQSGAEVKKPGASVKVSCKASGYIVTGYYMHWVRQAPGHGLEWMGWINPNSGGTNFAQNFQGRVTMTRDTSISTFYMDLNRLTSDDTAVYYCARGGAPVSYWFFDLWGRGTLVTVSS
VL: DIQMTQSPSSLSASVGDRVTITCRASQNINSYLNWYHQKPGKAPKVLIYNTSTLKSGVPSRFSGSGSGTYFTLTISSLQPEDFATFYCQQSHSTPFTFGPGTKVDIK
For the molecule B7, the “CD4 EC50 (nM); CD69/CD25” value turned out to be 10.4 nM and the “CD8 EC50 (nM); CD69/CD25” value was 11 nM.

B8: mAb 54 (antibody, V domains shown)
VH: EVQLEESGGGLVQPGGSLRLSCAASGFTFSRYSMNWVRQAPGKGLEWFSYISSSSRTIYYADSVKGRFTMSRDNAKNSLYLQMNSLRDEDTAVYFCARGDYYDSEGMDVWGKGTTVTVSS
VL: DIQMTQSPSTLSASVGDRVTITCRASQTITTWLAWYQQKPGKAPKLLIYKASTLESGVPSRFSGSGSGTEFTLTISSLQPDDFATYHCQQYKTFSYTFGQGTKLDIK
Regarding B8, the “CD4 EC50 (nM); CD69/CD25” value turned out to be 13.3 nM and the “CD8 EC50 (nM); CD69/CD25” value is 15.2 nM.

B9: mAb 55 (antibody, V domains shown)
VH: QVQLEQSGAEVKKPGASVKVSCKTSGYIFANYDINWVRQATGQGLEWMGWMNPKSGKAGYAQKFQGRVTMTSNTPINTAYMELSSLRSEDTAVYYCAREGHYDFWRGFYSFDYWGQGILVTVSS
VL: DIQMTQSPSSLSASVGDRVTITCRASQGIRNDLGWYQQKPGKAPKRLIYTASSLQSGVPSRFSGSGSGTEFTLTISSLQPEDFATYFCLQYNTYPYTFGQGTKLEIK
For the molecule B9, the “CD4 EC50 (nM); CD69/CD25” value came to 8.54 nM and the “CD8 EC50 (nM); CD69/CD25” value was 8.91 nM.

B10: mAb 74 (antibody, V domains shown)
VH: EVQLVESGGGLVQPGRSLRLSCAASGFTFADYVMHWVRQAPGKGLEWVSGINWNNARIGYVGSVKGRFTISRDNAKNSLYLQMTSLRVEDTALYHCVREGNFDFWSAYYRGFLDLWGRGTLVTVSS
VL: DIQMTQSPSSLSASVGDRVTITCRASQGIRSDLGWYQQKPGKAPKRLIYGASSLQGGVPSRFSGSGSGTEFTLTISSLQPEDFATYYCLQHNSYPYTFGQGTKLEIK
Take B10: the “CD4 EC50 (nM); CD69/CD25” value came to 20.9 nM and the “CD8 EC50 (nM); CD69/CD25” value came to 19.6 nM.

B11: mAb 71 (antibody, V domains shown)
VH: QVQLVQSGAEVRKPGASVKVSCKASGYTFTKYDVNWVRQAPGQGLEWMGWMNSNNGNIGYAQKFQGRVTMTRKTSISTAYMELSSLRSEDTAVYYCAREGHYDFWRGFYNFDYWGQGTLVTVSS
VL: DIQMTQSPSSLSASVGDRVTITCRASQDIKNDLGWYQQKPGKAPKRLIYAASSLQSGVPSRFSGSGSGTEFTLTISSLQPEDFATYYCLQHNFYPITFGQGTRLEIK
In the case of B11, the “CD4 EC50 (nM); CD69/CD25” value amounted to 19.3 nM and the “CD8 EC50 (nM); CD69/CD25” value was 19.2 nM.

B12: mAb 43 (antibody, V domains shown)
VH: QAQLVQSGSELKKPGASVKVSCKASGYTFTKHSMNWVRQAPGQGLEWMGWINTNTGNPMYAQGFTGRFVFSLDTSVTTAYLQISSLKAEDTAVYYCAREGDYDFWSGFFNFDYWGQGTLVTVSS
VL: DIQMTQSPSSLSASVGDRVTITCRASQGIRNDLGWYQQKPGKAPKRLIYAASSLQSGVPSRFSGSGSGAEFTLTISSLQPEDFATYYCLQHNSYPRTFGQGTKVEIK
Turning to B12, the “CD4 EC50 (nM); CD69/CD25” value amounted to 24.6 nM and the “CD8 EC50 (nM); CD69/CD25” value came out at 25.6 nM.

B13: mAb 73 (antibody, V domains shown)
VH: EVELVESGGGLVQPGRSLRLSCAASGFTFDDKVMHWVRQAPGKGLEWVSCINWNSGHIGYADSVKGRFTISRDNARTSLYLQMNSLRPEDTALYYCVREGNYDFWSGYYRGFFDLWGRGTLVTVSS
VL: DIQMTQSPSSLSASVGDRVTITCRASQGIRNDLGWYQQKPGKAPKRLIYAASSLQGGVPSRFSGSGSGTEFTLTISSLQPEDFATYYCLQHTSYPFTFGQGTKLEIK
Regarding B13, the “CD4 EC50 (nM); CD69/CD25” value was 24.8 nM and the “CD8 EC50 (nM); CD69/CD25” value was determined as 23 nM.

B14: mAb 67 (antibody, V domains shown)
VH: EVQLVESGGDLVQPGRSLRLSCAASGFTFDDCVIHWVRQAPGKGLEWVSGITWNSGRIGYADSVKGRFTISRDNAKNSLYLQMNSLRVEDTALYYCAKEGNYDFWSTYYRGYFDLWGRGTLVTVSS
VL: DIQMTQSPSSLSASVGDRVTITCRASQGIRNDLGWYQQKPGIAPKRLIYAASSLQGGVPLRFSGSGSGTEFTLTISSLQPEDFATYYCLQHNSYPYTFGQGTKLEIK
As to B14, the “CD4 EC50 (nM); CD69/CD25” value was 22 nM and the “CD8 EC50 (nM); CD69/CD25” value stood at 21.3 nM.

B15: mAb 68 (antibody, V domains shown)
VH: EVQLVDSGGGLVQPGGSLRLSCSGSGFTFSSYWMSWVRQAPGKGLEWVANIKQDGSQKYYVDSVKGRFTISRDNVKNSLYLQMNSLRVEDTAVYYCARDESSSWYWYFDLWGRGTLVTVSS
VL: DIQMTQSPSTLSASVGDRVTLTCRASQNIVKWLAWYQQKPGKAPKLLIYKASSLESGVPSWFSGSGSGTEFTLTINSLQPDDFATYYCQQYYTYSRTFGQGTKVEIK
Take B15: the “CD4 EC50 (nM); CD69/CD25” value was determined as 12.5 nM and the “CD8 EC50 (nM); CD69/CD25” value is 12.6 nM.

B16: mAb 72 (antibody, V domains shown)
VH: EVQLVDSGGGLVQPGGSLRLSCAASGFTFSSYWMSWVRQAPGKGLEWVANIKQDGSEKYYVDSVKGRFTISRDNVKNSLSLEMNSLRAEDTALYYCARDESSSWYWYFDLWGRGTLVTVSS
VL: DIQMTQSPSTLSASVGDRVTITCRASQSISKWLAWYQQKPGKAPKLLIYKASSLENGVPSRFSGSGSGTEFTLTISSLQPDDFATYYCQQYSSYSRTFGQGTKVEIK
Take B16: the “CD4 EC50 (nM); CD69/CD25” value was found to be 16.4 nM and the “CD8 EC50 (nM); CD69/CD25” value was determined as 18.2 nM.

B17: mAb 77 (antibody, V domains shown)
VH: EVQLVESGGGLVQPGGSLRLSCAASGFTFSNYWMSWVRQAPGKGLEWVANIKQDGSEKYYVDSVRGRFTISRDNAKKSLYLQMNSLRAEDTAVYYCARDNSNYAYWYFDIWGRGTLVTVSS
VL: DIQMTQSPSTLSVSVGDRVTITCRASQSIRKWLAWYQQKPGKAPKLLIFKASSLESGVPSRFSGSGSGTEFTLTISSLQPDDFATYYCQQYDTYSRTFGQGTKVEIK
For the molecule B17, the “CD4 EC50 (nM); CD69/CD25” value was determined as 12.9 nM and the “CD8 EC50 (nM); CD69/CD25” value was 13.1 nM.

B18: mAb 78 (antibody, V domains shown)
VH: EVQLVESGGGLVQPGGSLRLSCAASGFTFSSYWMSWVRQAPGKGLEWVANIKQDGSEKYYVDSVKGRFTISRDNAKNSLYLQMNSLRAEDTAVYYCARDNSPSFYWYFDLWGRGTLVTVSS
VL: DIQMTQSPSTLSASVGDRVTITCRASQSLSRWLAWYQQKPGKAPKLLIYKASSLESGVPSRFSGSGSGTEFTLTISSLQPDDFATYYCQQYYTYSRTFGQGTKVEIK
In the case of B18, the “CD4 EC50 (nM); CD69/CD25” value came out at 12.2 nM and the “CD8 EC50 (nM); CD69/CD25” value came out at 12.2 nM.
